# In the supplement of paper PMC10065799, “High-throughput profiling of sequence recognition by tyrosine kinases and SH2 domains using bacterial peptide display” (eLife, 2023):
# What was measured:
# [1] = target: SHP2-C SH2; assay: SH2 binding enrichment of the phosphorylated peptide, bacterial display (enrichment ratio); higher = better substrate or ligand; peptides without Tyr show the background
# [2] = target: c-Src SH2; assay: as above
# [3] = target: Grb2 SH2 (UniProt P62993); assay: as above
# [4] = target: MERTK (UniProt Q12866); assay: phosphorylation enrichment, bacterial display (enrichment ratio); higher = better substrate or ligand; peptides without Tyr show the background
# [5] = tested on: AncSZ; assay: as above
# [6] = target: Fyn (UniProt P06241); assay: as above
# [7] = tested on: c-Abl (mouse); assay: as above
# [8] = target: EPHB1 (UniProt P54762); assay: as above
# [9] = target: EPHB2 (UniProt P29323); assay: as above
# [10] = tested on: Fer (mouse); assay: as above
# [11] = target: FGFR1 (UniProt P11362); assay: as above
# [12] = tested on: c-Src; assay: as above
# [13] = target: FGFR3 (UniProt P22607); assay: as above
# [14] = target: Fes (UniProt P07332); assay: as above
# [15] = target: Hck (UniProt P08631); assay: as above
# [16] = target: Jak2 (UniProt O60674); assay: as above
# 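Wherever SH2 binding enrichment of the phosphorylated peptide, bacterial display is given: peptide library displayed on the E. coli surface as eCPX fusions, selected cells deep-sequenced, score is each peptide's frequency after selection divided by its frequency in the input.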
# 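Wherever phosphorylation enrichment, bacterial display is given: 11-residue human phosphosite peptides and single-mutation variants displayed on the E. coli surface, counted by deep sequencing, each peptide's frequency after selection divided by its frequency in the unselected input library; frequency after pTyr selection over input frequency; kinase dosed for 20-30% of maximal phosphorylation in three min.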
# Sequence of EPHB2 (P29323 whole entry, looked up): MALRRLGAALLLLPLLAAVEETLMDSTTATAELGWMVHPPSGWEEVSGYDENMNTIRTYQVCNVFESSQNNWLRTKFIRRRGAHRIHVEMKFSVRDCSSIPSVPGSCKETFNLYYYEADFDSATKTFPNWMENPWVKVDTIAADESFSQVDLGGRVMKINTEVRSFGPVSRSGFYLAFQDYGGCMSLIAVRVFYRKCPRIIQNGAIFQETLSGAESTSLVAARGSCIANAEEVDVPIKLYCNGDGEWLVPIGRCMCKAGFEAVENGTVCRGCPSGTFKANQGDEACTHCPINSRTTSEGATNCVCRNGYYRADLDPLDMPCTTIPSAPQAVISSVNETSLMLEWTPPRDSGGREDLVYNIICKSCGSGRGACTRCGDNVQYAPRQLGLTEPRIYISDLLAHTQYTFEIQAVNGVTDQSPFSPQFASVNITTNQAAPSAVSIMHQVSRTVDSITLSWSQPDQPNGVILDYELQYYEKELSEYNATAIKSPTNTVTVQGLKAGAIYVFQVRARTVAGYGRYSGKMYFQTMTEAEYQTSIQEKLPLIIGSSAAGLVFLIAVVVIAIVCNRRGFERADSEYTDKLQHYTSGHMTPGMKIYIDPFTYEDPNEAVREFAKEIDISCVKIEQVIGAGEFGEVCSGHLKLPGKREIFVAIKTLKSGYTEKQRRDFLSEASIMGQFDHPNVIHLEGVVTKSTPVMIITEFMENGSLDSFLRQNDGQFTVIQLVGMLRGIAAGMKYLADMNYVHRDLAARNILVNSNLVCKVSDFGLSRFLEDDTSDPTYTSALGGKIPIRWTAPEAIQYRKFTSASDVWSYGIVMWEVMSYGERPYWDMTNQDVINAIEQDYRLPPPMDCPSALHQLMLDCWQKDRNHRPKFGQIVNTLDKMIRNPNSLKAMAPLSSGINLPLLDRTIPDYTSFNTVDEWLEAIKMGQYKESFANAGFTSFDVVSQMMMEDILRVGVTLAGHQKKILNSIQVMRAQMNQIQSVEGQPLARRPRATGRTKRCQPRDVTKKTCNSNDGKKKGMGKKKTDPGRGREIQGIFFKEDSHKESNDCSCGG
# Sequence of MERTK (Q12866 whole entry, looked up): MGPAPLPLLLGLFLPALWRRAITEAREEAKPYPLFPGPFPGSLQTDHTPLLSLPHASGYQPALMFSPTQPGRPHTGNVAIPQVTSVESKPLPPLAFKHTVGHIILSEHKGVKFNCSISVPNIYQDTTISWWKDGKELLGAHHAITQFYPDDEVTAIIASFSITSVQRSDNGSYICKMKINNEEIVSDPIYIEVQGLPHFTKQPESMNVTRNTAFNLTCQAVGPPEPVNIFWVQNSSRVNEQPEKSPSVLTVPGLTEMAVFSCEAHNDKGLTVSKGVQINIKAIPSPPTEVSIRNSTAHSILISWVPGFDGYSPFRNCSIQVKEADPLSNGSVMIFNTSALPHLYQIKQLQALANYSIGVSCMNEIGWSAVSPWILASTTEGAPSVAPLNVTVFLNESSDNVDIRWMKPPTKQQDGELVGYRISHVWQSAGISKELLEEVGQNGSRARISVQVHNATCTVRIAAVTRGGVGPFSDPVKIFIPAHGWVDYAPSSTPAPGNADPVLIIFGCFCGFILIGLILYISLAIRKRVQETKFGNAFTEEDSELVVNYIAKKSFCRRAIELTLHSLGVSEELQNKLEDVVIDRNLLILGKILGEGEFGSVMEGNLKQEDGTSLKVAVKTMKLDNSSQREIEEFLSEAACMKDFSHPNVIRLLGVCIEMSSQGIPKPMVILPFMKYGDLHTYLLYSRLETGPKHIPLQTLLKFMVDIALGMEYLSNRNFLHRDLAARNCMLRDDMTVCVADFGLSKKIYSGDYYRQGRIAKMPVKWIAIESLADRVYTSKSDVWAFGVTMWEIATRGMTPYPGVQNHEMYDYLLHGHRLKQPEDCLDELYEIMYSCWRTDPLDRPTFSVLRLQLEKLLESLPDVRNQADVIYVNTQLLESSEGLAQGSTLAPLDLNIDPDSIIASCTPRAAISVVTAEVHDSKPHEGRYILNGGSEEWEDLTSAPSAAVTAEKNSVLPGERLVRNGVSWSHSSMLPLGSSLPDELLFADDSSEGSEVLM
# Sequence of Jak2 (O60674 whole entry, looked up, the tested form may be a part): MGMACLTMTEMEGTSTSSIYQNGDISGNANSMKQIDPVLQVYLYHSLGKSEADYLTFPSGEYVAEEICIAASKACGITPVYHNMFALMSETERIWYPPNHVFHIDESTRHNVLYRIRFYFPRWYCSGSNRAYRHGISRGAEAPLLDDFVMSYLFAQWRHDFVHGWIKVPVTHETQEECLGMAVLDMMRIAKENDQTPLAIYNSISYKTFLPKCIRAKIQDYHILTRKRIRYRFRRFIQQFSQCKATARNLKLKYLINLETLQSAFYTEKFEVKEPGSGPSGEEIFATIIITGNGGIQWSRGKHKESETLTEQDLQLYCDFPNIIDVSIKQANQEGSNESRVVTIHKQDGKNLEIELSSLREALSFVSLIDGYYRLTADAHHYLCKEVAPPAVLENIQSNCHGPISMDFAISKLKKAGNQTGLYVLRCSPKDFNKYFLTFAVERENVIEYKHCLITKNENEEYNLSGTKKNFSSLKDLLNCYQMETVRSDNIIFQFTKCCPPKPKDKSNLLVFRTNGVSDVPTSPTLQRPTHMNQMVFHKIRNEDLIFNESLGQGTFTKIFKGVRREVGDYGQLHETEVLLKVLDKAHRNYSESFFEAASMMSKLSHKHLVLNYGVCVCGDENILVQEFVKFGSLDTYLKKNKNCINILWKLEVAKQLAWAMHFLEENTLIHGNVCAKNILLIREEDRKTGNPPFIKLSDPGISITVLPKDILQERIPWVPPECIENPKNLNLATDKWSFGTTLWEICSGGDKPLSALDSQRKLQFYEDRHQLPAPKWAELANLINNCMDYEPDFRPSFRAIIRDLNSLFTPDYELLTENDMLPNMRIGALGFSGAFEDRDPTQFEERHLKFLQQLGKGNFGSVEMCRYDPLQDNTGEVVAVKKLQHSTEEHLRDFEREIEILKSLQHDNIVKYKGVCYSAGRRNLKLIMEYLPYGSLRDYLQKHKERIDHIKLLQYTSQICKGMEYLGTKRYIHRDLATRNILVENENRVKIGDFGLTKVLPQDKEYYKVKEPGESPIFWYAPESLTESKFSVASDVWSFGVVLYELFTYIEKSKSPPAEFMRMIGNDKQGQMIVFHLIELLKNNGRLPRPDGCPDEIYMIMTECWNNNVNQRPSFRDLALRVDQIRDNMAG
# Sequence of Hck (P08631 whole entry, looked up): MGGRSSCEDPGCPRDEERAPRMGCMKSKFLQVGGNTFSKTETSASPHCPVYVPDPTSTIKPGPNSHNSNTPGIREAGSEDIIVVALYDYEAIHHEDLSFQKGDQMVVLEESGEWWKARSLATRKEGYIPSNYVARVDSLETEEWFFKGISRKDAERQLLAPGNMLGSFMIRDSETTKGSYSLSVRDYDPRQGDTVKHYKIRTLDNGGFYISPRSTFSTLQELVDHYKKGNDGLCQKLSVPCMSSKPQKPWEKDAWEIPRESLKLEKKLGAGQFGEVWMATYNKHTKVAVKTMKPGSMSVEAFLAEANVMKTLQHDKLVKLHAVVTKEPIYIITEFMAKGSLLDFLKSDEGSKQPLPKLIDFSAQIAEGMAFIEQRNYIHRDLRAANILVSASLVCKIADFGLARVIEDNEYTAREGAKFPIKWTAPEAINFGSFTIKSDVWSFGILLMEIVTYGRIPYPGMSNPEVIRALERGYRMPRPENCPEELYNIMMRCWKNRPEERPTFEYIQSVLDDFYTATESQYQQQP
# Sequence of FGFR3 (P22607 whole entry, looked up): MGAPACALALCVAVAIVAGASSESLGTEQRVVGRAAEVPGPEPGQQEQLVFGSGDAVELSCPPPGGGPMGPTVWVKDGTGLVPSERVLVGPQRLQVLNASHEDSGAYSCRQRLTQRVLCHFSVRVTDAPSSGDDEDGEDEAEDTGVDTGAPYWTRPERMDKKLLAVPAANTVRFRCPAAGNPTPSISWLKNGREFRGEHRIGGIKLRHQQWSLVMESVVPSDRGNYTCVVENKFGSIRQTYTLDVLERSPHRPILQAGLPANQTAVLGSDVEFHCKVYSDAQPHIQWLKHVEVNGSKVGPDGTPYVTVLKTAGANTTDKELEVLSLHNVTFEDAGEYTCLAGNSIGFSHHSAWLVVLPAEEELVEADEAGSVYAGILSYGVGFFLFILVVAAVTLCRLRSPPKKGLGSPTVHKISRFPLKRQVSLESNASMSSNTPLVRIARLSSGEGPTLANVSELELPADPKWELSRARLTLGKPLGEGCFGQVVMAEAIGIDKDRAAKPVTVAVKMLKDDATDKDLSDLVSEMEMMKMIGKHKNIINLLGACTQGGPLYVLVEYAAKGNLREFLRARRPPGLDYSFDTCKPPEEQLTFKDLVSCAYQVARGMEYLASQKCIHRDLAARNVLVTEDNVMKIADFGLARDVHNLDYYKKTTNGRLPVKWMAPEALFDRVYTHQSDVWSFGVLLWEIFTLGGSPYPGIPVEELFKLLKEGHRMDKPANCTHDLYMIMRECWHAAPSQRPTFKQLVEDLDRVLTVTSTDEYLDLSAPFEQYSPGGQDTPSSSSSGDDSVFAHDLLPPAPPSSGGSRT
# Sequence of Fyn (P06241 whole entry, looked up): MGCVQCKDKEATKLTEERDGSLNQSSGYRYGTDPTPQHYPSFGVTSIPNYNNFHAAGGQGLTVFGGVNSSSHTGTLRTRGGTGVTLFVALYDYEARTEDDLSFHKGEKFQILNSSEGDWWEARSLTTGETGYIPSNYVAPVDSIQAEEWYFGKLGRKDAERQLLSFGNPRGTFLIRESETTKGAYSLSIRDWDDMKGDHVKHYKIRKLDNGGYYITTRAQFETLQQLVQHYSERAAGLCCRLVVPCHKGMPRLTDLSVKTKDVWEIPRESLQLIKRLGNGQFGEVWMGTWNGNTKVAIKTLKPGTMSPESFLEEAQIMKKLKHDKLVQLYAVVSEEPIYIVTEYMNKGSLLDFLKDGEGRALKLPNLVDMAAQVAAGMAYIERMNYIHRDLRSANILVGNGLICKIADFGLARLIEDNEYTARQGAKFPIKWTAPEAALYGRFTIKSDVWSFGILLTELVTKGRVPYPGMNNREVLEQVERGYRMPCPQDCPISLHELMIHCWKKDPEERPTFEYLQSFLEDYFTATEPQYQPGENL
Sequence,SH2 binding enrichment [1],SH2 binding enrichment [2],SH2 binding enrichment [3],phosphorylation enrichment [4],phosphorylation enrichment [5],phosphorylation enrichment [6],phosphorylation enrichment [7],phosphorylation enrichment [8],phosphorylation enrichment [9],phosphorylation enrichment [10],phosphorylation enrichment [11],phosphorylation enrichment [12],phosphorylation enrichment [13],phosphorylation enrichment [14],phosphorylation enrichment [15],phosphorylation enrichment [16]
CPPKVYELMIA [ABL2_Y515_R519I],0.658,1.44,0.817,5.18,1.24,0.916,0.766,7.46,2.25,7.5,1.34,1.99,0.959,1.34,1.03,1.2
VNYGAYINYFK [GLB1_Y488_D491Y],1.12,1.23,3.13,0.629,0.894,1.22,0.941,1.9,2.03,0.488,0.905,1.08,0.986,1.06,1.1,1.7
GEEIKYMLWLL [OTC_Y55_S60L],1.01,0.716,1.16,1.58,1,0.5,0.77,0.722,0.554,1.88,0.752,0.544,0.975,1.55,0.663,0.912
EQLLDYTRTVQ [INPP5E_Y439_R435Q],0.732,0.438,0.904,0.475,0.969,0.469,0.614,0.557,0.569,0.494,0.515,0.438,0.709,0.815,0.542,0.976
NPIGLYSAEIL [LDB3_Y202_T206I],0.852,0.415,0.635,6.37,0.751,0.839,0.568,3,2.6,3.44,0.419,1.11,0.562,0.879,1.04,0.876
VVKLTYNENDN [CAMKK2_Y183_A182T],0.673,0.469,0.815,0.467,0.939,0.468,0.551,0.491,0.545,0.577,0.618,0.419,0.564,0.917,0.5,0.726
HSGVSYFINLC [IGF2R_Y2024_N2020S_YF],0.491,0.461,0.651,0.417,1.47,0.44,1.21,0.682,0.558,0.652,0.439,0.439,0.835,1.51,0.482,1.34
TINPIHEHVGY [CHN1_Y143_Y143H],0.87,0.58,0.823,0.446,0.679,0.377,0.57,0.674,0.433,0.757,0.426,0.423,0.414,0.727,0.474,0.864
LENSTYQFICV [CRB1_Y760_R764C_YF],0.739,0.457,0.9,2.49,2.12,2.23,1.12,4.2,2.39,8.22,3.43,1.84,3.21,1.79,3.46,1.37
VEKEKYVSYIS [JMJD1C_Y596_M591V],0.748,0.507,0.978,0.444,0.76,0.464,0.698,0.487,0.489,0.466,0.453,0.5,0.567,0.826,0.434,0.866

# More lines, main results first:
SH2 binding enrichment [1],SH2 binding enrichment [2],SH2 binding enrichment [3],Sequence,phosphorylation enrichment [4],phosphorylation enrichment [5],phosphorylation enrichment [6],phosphorylation enrichment [7],phosphorylation enrichment [8],phosphorylation enrichment [9],phosphorylation enrichment [10],phosphorylation enrichment [11],phosphorylation enrichment [12],phosphorylation enrichment [13],phosphorylation enrichment [14],phosphorylation enrichment [15],phosphorylation enrichment [16]
1.22,1.45,20.6,EERNTYVNTTL [TEK_Y1102_K1100N],0.675,0.694,0.446,0.638,0.955,0.531,0.404,0.515,0.43,0.454,0.83,0.53,0.551
0.742,0.471,0.88,FEPWVYSLSFE [PRKDC_Y647_F649L_YF],1.35,1.27,7.08,0.672,0.607,1.26,1.41,0.598,6.52,0.839,1.45,4.58,1.34
0.623,1.37,0.78,PLQKTYNYNML [SLC4A1_Y553_V557M],0.52,0.878,0.39,0.816,0.76,1.03,0.395,0.589,0.52,0.678,1.01,0.578,0.649
0.658,2.42,0.756,CTTIHYNDMCN [TP53_Y234_Y236D],0.396,1.03,0.422,0.589,0.451,0.528,0.421,0.485,0.492,0.539,0.85,0.455,0.724
0.868,0.956,1.03,LSALDYKIFYY [WDPCP_Y210],0.365,1.18,0.511,0.787,0.634,0.602,0.404,0.816,0.495,0.928,1.18,0.499,1.29
0.795,0.522,0.689,SLALFYRKVYH [RBL1_Y792],0.408,1.23,0.481,0.593,0.667,0.643,0.566,0.575,0.379,0.776,1.23,0.518,1.14
0.573,0.569,0.933,KRLKDYLTVLQ [USP25_Y425],0.352,0.679,0.349,0.783,0.422,0.412,0.431,0.506,0.403,0.522,0.664,0.322,0.625
